Assay results taken from patent US20230041134A1 (Genentech, published 2023).
Positions count from the first letter of the chain named. Names and notes keep the numbering of the source. One block for each binder: values may come before it.

Key:
[1] = target: T1, Her2 extracellular domain (Her2 ECD) (human, UniProt P04626 23-652); assay: SPR (BIAcore T100), IgG on anti-human IgG (Fc) capture chip, Her2 ECD, 1:1 Langmuir fit
T1 construct: For the crystal structure it was expressed in CHO cells and the complex was enzymatically deglycosylated; also called biotinylated Her2 ECD
Protocol: (§1) The affinity of each 7C2 IgG variant for Her2 was determined by surface plasmon resonance using a BIAcoreT100. Biacore Series S CMS sensor chips were immobilized with monoclonal mouse anti-human IgG (Fc) antibody (Human antibody capture kit, GE Healthcare). Serial 3-fold dilutions of each 7C2 variant were injected at a flow rate of 30 μl/min. Each sample was analyzed with 3-minute association and 10-minute dissociation. After each injection the chip was regenerated using 3 M MgCl₂. Binding response was corrected by subtracting the RU from a flow cell capturing an irrelevant IgG at similar density. A 1:1 Languir model of simultaneous fitting of kₒₙ and koff was used for kinetics analysis.

[2] = target: T1, Her2 extracellular domain (Her2 ECD); assay: SPR (BIAcore T100), IgG, 1:1 Langmuir fit
Protocol: as §1

[3] = target: T1, Her2 extracellular domain (Her2 ECD); assay: SPR (BIAcore T100), IgG, 1:1 Langmuir fit; remark: listed apart in the source
Protocol: as §1

B1: 7C2.v2.1 (antibody, V domains shown)
VH: EVQLVQSGAEVKKPGASVKVSCKASGYSFTGYWMNWVRQAPGQGLEWIGMIHPSDSEIRANQKFRDRVTITRDTSTSTAYLELSSLRSEDTAVYYCARGTYDGGFEYWGQGTLVTVSS
VL: DIVMTQSPDSLAVSLGERATINCRASQSVSGSRFTYMHWYQQKPGQPPKLLIKYASILESGVPDRFSGSGSGTDFTLTISSLQAEDVAVYYCQHSWEIPPWTFGQGTKVEIK
notes: Expressed as IgG for SPR; also called hu7C2.v2.1
Kd [1]: 16 nM
Kd [2]: 15.5 nM
koff [2]: 0.0041 s⁻¹
kon [2]: 260000 M⁻¹ s⁻¹

B2: hu7C2.v2.2.LA (antibody, human IgG1, kappa, V domains shown)
VH: B1 VH with S54L, S56A, R72V
VL: DIVMTQSPDSLAVSLGERATINCRASQSVSGSRFTYMHWYQQKPGQPPKLLIKYASILESGVPDRFSGSGSGTDFTLTISSLQAEDVAVYYCQHSWEIPPWTFGQGTKVEIKR
notes: IgG1 kappa; Measured as IgG by SPR; also called humanized 7C2.v2.2.LA; hu7C2.v2.2.LA (S53L, S55A)
Kd [3]: 3 nM

B5: 7C2.v1.2 (antibody, V domains shown)
VH: B1 VH with R72V
VL: B1 VL with K53Y
Kd [1]: 13 nM

B7: 7C2.v3.1 (antibody, V domains shown)
VH: B1 VH
VL: B1 VL with M4L
notes: Expressed as IgG
Kd [1]: 15 nM

B8: hu7C2.v2.2 (antibody, V domains shown)
VH: B1 VH with R72V
VL: B1 VL
notes: Expressed as IgG; It is the parent of hu7C2.v2.2.LA, which adds S53L and S55A in HVR-H2
Kd [3]: 11 nM
Kd [1]: 11 nM

B9: mu7C2.B9 (antibody, V domains shown)
VH: QVQLQQPGAELVRPGASVKLSCKASGYSFTGYWMNWLKQRPGQGLEWIGMIHPSDSEIRANQKFRDKATLTVDKSSTTAYMQLSSPTSEDSAVYYCARGTYDGGFEYWGQGTTLTVSS
VL: DIVLTQSPASLVVSLGQRATISCRASQSVSGSRFTYMHWYQQKPGQPPKLLIKYASILESGVPARFSGGGSGTDFTLNIHPVEEDDTATYYCQHSWEIPPWTFGGGTKLEIK
notes: Assessed as IgG by SPR on an anti-human IgG (Fc) capture chip; also called murine 7C2.B9; chimeric mu7C2.B9
Kd [3]: 8 nM

Results, then the binder that gave them:

Kd [1]: 11 nM
B3: 7C2.v1.3 (antibody, V domains shown)
VH: B1 VH with V37L, V68A, I70L, R72V, T74K
VL: B1 VL with K53Y

Kd [1]: 10 nM
B4: 7C2.v2.3 (antibody, V domains shown)
VH: B1 VH with V37L, V68A, I70L, R72V, T74K
VL: B1 VL

Kd [1]: 9 nM
B6: 7C2.v3.3 (antibody, V domains shown)
VH: B1 VH with V37L, V68A, I70L, R72V, T74K
VL: B1 VL with M4L
